This is an account of results in patent US20230312722A1 (NONA BIOSCIENCES SUZHOU, published 2023).

Sequences and labels used below:
T1: human B7H4 on the cell surface (human, UniProt Q7Z7D3 25-282)
T1 construct: whole, on cells; also called CHOK1/hu B7H4; B7H4 on SK-BR-3
T1 sequence (looked up): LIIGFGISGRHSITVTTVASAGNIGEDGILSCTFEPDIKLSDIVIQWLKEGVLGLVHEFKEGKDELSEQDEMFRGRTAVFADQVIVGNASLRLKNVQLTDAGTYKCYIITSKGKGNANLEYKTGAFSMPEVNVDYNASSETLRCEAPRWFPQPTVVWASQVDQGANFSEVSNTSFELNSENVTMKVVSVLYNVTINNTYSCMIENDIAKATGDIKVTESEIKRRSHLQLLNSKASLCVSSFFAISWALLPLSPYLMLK

B1: PR002849 (bispecific antibody, human IgG1, kappa, L234A L235A)
light: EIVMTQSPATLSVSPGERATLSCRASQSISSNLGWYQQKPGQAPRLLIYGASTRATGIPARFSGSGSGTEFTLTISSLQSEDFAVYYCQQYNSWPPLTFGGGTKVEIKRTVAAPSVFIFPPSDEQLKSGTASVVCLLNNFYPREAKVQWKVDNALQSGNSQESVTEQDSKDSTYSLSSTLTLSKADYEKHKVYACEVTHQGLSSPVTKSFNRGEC
heavy: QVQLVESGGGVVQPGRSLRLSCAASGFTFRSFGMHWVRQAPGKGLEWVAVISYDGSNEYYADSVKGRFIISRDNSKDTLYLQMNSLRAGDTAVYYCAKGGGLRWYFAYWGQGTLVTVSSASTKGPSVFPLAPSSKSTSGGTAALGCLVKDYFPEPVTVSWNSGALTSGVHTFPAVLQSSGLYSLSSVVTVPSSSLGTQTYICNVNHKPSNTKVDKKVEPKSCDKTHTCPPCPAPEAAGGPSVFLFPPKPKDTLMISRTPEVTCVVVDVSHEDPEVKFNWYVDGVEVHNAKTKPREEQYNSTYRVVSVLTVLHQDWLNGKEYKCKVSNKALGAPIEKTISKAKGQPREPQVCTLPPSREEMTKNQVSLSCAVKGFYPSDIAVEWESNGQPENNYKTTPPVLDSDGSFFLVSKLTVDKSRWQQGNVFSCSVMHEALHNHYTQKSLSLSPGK
chain: QAVVTQEPSLTVSPGGTVTLTCRSSTGAVTTSNYANWVQQKPGQAPRGLIGGTNKRAPWTPARFSGSLLGDKAALTLLGAQPEDEAEYFCALWYSNLWVFGGGTKLTVLGGGQSGQGGSGGGGSEVQLVESGGGLVQPGGSLKLSCAASGFTFNTYAMNWVRQASGKGLEWVGRIRSKYNNYATYYADSVKDRFTISRDDSKSTLYLQMNSLKTEDTAVYYCVRHGNFGNSYVSWFAYWGQGTLVTVSSASEPKSSDKTHTCPPCPAPEAAGGPSVFLFPPKPKDTLMISRTPEVTCVVVDVSHEDPEVKFNWYVDGVEVHNAKTKPREEQYNSTYRVVSVLTVLHQDWLNGKEYKCKVSNKALGAPIEKTISKAKGQPREPQVYTLPPCREEMTKNQVSLWCLVKGFYPSDIAVEWESNGQPENNYKTTPPVLDSDGSFFLYSKLTVDKSRWQQGNVFSCSVMHEALHNHYTQKSLSLSPGK
notes: B7H4 x CD3, 1+1 Fab-Fc-scFv (structure 1): B7H4 Fab from PR001476 (hole, AAG), CD3 scFv(VL-VH)-Fc from PR000627 (knob, AAG)
B2: PR002850 (bispecific antibody, human IgG1, kappa, L234A L235A)
light: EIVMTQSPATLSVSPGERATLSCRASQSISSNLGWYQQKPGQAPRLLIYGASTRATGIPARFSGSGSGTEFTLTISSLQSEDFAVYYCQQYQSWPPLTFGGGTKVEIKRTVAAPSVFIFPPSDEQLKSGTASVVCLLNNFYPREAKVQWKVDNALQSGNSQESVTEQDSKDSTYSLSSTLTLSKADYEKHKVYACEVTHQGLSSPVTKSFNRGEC
heavy: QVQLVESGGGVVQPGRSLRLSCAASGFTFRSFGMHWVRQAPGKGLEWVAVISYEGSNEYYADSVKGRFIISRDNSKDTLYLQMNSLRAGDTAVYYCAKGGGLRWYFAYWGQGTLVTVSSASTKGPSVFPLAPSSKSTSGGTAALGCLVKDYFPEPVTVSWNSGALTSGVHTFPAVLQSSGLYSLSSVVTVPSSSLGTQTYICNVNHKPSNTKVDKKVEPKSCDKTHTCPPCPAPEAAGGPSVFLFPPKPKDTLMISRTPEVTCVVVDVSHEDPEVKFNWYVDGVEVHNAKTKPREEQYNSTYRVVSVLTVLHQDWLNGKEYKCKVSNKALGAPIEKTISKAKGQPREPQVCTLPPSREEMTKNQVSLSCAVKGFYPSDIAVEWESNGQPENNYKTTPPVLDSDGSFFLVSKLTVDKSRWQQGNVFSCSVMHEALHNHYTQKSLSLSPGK
chain: B1 chain
notes: B7H4 x CD3, 1+1 Fab-Fc-scFv (structure 1): B7H4 Fab from PR002405, CD3 scFv-Fc from PR000627
B3: PR002851 (bispecific antibody, human IgG1, kappa, L234A L235A)
light: not shown
heavy: not shown
chain: B1 chain
notes: B7H4 x CD3, 1+1 Fab-Fc-scFv (structure 1): B7H4 Fab from PR002408, CD3 scFv-Fc from PR000627
B4: PR002855 (bispecific antibody, human IgG1, kappa, lambda, L234A L235A)
chain 1: EVQLLESGGGLVQPGGSLRLSCAASGFTFSTYAMNWVRQAPGKGLEWVSRIRSKYNNYATYYADSVKDRFTISRDDSKSTLYLQMNSLRAEDTAVYYCVRHGNFGNSYVSWFAYWGQGTLVTVSSASTKGPSVFPLAPSSKSTSGGTAALGCLVKDYFPEPVTVSWNSGALTSGVHTFPAVLQSSGLYSLSSVVTVPSSSLGTQTYICNVNHKPSNTKVDKKVEPKSC
chain 2: QAVVTQEPSLTVSPGGTVTLTCRSSTGAVTTSNYANWVQQKPGQAPRGLIGGTNKRAPWTPARFSGSLLGDKAALTLLGAQPEDEAEYFCALWYSNLWVFGGGTKLTVLGQPKAAPSVTLFPPSSEELQANKATLVCLISDFYPGAVTVAWKADSSPVKAGVETTTPSKQSNNKYAASSYLSLTPEQWKSHRSYSCQVTHEGSTVEKTVAPTECSDKTHTCPPCPAPEAAGGPSVFLFPPKPKDTLMISRTPEVTCVVVDVSHEDPEVKFNWYVDGVEVHNAKTKPREEQYNSTYRVVSVLTVLHQDWLNGKEYKCKVSNKALGAPIEKTISKAKGQPREPQVYTLPPCREEMTKNQVSLWCLVKGFYPSDIAVEWESNGQPENNYKTTPPVLDSDGSFFLYSKLTVDKSRWQQGNVFSCSVMHEALHNHYTQKSLSLSPGK
heavy: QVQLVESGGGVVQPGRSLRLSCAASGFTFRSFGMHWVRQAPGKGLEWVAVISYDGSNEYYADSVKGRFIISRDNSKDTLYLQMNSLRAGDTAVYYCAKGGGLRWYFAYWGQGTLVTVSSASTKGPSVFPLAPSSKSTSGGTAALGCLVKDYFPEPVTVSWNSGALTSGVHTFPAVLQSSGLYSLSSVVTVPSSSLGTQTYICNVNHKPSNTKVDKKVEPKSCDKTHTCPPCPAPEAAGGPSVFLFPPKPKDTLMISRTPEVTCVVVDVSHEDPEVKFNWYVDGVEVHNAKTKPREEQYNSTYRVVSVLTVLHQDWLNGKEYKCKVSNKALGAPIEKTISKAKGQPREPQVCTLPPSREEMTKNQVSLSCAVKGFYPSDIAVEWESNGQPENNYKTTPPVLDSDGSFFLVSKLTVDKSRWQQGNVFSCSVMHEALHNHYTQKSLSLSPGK
light: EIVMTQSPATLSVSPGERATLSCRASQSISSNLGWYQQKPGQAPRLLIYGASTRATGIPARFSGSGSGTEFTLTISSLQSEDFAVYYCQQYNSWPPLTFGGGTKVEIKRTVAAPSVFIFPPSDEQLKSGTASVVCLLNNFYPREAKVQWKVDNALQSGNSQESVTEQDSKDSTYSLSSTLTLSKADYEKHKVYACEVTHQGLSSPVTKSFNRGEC
notes: B7H4 x CD3, 1+1 Fab-Fc-crossFab (structure 4): CD3 Fab(cross Fd/LC) from PR001924 (chains 1 and 2), B7H4 Fab from PR001476 (chains 3 and 4)
B5: PR002987 (bispecific antibody, human IgG1, kappa, lambda, L234A L235A)
chain 1: B4 chain 1
chain 2: not shown
heavy: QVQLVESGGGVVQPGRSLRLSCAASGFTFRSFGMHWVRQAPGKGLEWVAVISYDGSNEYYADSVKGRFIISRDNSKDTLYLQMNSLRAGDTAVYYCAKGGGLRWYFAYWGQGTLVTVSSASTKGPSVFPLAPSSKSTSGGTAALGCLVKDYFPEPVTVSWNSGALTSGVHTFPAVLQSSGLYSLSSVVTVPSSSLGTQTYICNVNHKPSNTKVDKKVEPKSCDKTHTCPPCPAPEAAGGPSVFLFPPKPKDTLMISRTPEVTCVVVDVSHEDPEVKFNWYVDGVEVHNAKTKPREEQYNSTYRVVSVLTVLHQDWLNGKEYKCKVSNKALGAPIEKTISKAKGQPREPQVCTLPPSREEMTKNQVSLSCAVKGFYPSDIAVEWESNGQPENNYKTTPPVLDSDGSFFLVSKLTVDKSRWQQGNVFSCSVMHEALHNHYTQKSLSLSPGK
light: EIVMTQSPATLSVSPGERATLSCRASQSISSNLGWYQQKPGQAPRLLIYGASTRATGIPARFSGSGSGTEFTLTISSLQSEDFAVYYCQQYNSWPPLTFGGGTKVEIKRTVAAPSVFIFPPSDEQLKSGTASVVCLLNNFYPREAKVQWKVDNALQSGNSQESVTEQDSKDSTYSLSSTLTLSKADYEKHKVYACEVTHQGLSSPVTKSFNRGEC
notes: B7H4 x CD3, 2+1 asymmetric structure (structure 5): CD3 end from PR001924, two B7H4 Fabs from PR001476
B6: PR002857 (bispecific antibody, human IgG1, kappa, lambda, L234A L235A)
chain 1: B4 chain 1
chain 2: B4 chain 2
heavy: not shown
light: not shown
notes: B7H4 x CD3, 1+1 Fab-Fc-crossFab (structure 4): CD3 crossFab from PR001924, B7H4 Fab from PR002408
B7: PR002856 (bispecific antibody, human IgG1, kappa, lambda, L234A L235A)
chain 1: B4 chain 1
chain 2: B4 chain 2
heavy: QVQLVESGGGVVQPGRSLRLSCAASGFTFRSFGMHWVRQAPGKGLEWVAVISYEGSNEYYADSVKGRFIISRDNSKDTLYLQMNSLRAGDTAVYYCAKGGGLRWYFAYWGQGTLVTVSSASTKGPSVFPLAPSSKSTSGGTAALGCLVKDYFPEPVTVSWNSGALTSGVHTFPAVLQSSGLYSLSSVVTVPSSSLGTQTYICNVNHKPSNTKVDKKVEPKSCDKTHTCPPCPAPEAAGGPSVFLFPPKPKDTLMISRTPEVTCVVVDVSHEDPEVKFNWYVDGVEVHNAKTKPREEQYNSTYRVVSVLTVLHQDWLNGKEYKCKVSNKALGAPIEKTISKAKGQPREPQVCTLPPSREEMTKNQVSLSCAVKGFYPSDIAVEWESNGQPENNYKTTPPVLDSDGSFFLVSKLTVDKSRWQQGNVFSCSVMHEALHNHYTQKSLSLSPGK
light: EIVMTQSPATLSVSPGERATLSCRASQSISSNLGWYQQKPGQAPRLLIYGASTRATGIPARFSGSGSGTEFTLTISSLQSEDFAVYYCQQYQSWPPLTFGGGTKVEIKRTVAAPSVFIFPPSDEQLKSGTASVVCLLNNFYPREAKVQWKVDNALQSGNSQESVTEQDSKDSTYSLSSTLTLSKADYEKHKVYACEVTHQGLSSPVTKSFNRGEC
notes: B7H4 x CD3, 1+1 Fab-Fc-crossFab (structure 4): CD3 crossFab from PR001924, B7H4 Fab from PR002405
B8: PR003899 (bispecific antibody, human IgG1, lambda, L234A L235A)
light: QAVVTQEPSLTVSPGGTVTLTCRSSTGAVTTSNYANWVQQKPGQAPRGLIGGTNKRAPWTPARFSGSLLGDKAALTLLGAQPEDEAEYFCALWYSNLWVFGGGTKLTVLGQPKAAPSVTLFPPSSEELQANKATLVCLISDFYPGAVTVAWKADSSPVKAGVETTTPSKQSNNKYAASSYLSLTPEQWKSHRSYSCQVTHEGSTVEKTVAPTECS
heavy: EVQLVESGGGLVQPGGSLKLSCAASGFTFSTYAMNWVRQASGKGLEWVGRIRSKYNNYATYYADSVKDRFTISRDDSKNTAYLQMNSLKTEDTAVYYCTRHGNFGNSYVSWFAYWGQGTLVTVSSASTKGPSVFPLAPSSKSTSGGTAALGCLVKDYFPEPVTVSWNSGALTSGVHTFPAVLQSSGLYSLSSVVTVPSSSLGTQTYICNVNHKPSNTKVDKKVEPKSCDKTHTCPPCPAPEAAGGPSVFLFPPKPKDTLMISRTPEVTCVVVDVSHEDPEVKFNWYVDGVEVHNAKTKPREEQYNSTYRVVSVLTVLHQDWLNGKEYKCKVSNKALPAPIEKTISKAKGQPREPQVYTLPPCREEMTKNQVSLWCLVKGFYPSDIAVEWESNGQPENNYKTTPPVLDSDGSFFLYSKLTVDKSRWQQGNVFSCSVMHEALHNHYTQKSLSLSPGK
chain: EIVMTQSPASLSVSPGERATLSCRASQSVSSNLAWYQQKPGQAPRLLIYGASTRATGIPARVSGGGSGTEFTLTISSLQSEDFAVYYCQQYKNWPFTFGPGTKLEIKGGGGSGGGGSGGGGSGGGGSQVQLVQSGAEVKKPGSSMRVSCKASEDTFSSYAISWVRQAPGQGLEWMGGTAPIFGTTNYAQKFQGRVTITADKSTSTAYMELSSLRSEDTAVYYCARGGPYFDYWGQGTLVTVSSASEPKSSDKTHTCPPCPAPEAAGGPSVFLFPPKPKDTLMISRTPEVTCVVVDVSHEDPEVKFNWYVDGVEVHNAKTKPREEQYNSTYRVVSVLTVLHQDWLNGKEYKCKVSNKALPAPIEKTISKAKGQPREPQVCTLPPSREEMTKNQVSLSCAVKGFYPSDIAVEWESNGQPENNYKTTPPVLDSDGSFFLVSKLTVDKSRWQQGNVFSCSVMHEALHNHYTQKSLSLSPGK
notes: B7H4 x CD3, 1+1 Fab-Fc-scFv: CD3 Fab from PR003886 (knob, LALA; weak CD3 end), B7H4 scFv(VL-VH)-Fc (hole, LALA)
B9: PR003733 (bispecific antibody, human IgG1, lambda, L234A L235A)
light: B8 light
heavy: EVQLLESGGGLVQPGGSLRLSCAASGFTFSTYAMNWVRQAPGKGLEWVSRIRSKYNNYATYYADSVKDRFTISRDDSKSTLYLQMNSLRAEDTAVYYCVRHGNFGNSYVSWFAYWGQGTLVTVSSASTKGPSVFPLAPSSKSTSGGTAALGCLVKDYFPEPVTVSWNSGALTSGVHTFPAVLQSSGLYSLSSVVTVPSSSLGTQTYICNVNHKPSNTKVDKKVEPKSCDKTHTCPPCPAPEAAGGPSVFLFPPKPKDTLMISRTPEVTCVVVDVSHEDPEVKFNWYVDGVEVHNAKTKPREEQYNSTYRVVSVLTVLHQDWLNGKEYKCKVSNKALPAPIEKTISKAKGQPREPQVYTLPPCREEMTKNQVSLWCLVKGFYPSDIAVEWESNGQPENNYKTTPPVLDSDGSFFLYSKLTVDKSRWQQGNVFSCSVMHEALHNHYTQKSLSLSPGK
chain: B8 chain
notes: B7H4 x CD3, 1+1 Fab-Fc-scFv: CD3 Fab from PR001848 (knob, LALA; strong CD3 end), B7H4 scFv(VL-VH)-Fc (hole, LALA)

T2 sequence (P07766 23-207 limits assumed, chain 1 of 3): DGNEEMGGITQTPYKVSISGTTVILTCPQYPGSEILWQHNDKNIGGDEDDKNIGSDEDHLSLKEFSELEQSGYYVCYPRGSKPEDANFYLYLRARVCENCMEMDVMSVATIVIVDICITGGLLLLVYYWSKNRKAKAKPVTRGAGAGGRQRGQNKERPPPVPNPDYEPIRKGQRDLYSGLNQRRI
T2 sequence (P04234 22-171 limits assumed, chain 2 of 3): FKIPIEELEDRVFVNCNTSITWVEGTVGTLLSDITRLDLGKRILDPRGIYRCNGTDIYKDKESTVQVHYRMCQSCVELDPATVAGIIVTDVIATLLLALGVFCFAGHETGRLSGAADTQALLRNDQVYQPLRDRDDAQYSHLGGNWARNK
T2 sequence (P09693 23-182 limits assumed, chain 3 of 3): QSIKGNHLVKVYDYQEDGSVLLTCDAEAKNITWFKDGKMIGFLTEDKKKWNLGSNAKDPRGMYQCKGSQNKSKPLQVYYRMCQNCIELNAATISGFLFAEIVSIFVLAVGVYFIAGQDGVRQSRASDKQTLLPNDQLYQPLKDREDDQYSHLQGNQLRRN

The first assay has as its target T2, CD3 on human T cells (human, UniProt P07766 23-207; P04234 22-171; P09693 23-182). Kind of assay: FACS on human T cells; EC50 printed as n.d., curve still rising at 100 nM. How it is done: (§1) SK-BR-3 cells were digested. T cells were isolated using the human T cell isolation kit (Miltenyi, #130-096-535) as described in the method of the instruction, and resuspended with PBS containing 2% BSA. The cell density was adjusted to 1×10⁶ cells/mL. The cells were seeded in a 96-well V-bottom plate (Corning, #3894) at 100 μL/well, followed by the addition of test antibodies diluted in a 3-fold gradient at a concentration that was 2 times the final concentration, each at 100 μL/well. The cells were incubated at 4° C. for 2 h away from light. Thereafter, the cells in each well were rinsed twice with 100 μL of pre-cooled PBS containing 2% BSA, and centrifuged at 500 g at 4° C. for 5 min, and then the supernatant was discarded. Then each well was added with 100 μL of fluorescent secondary antibody (Alexa Fluor 488-conjugated AffiniPure Goat Anti-Human IgG, Fcγ Fragment Specific, Jackson, #109-545-098, diluted in a 1:500 ratio), and the plate was incubated away from light at 4° C. for 1 h. The cells in each well were washed twice with 100 μL of pre-cooled PBS containing 2% BSA, and centrifuged at 500 g at 4° C. for 5 minutes, and then the supernatant was discarded. Finally, the cells in each well were resuspended with 200 μL of pre-cooled PBS containing 2% BSA, and the fluorescence signal values were read using an ACEA Novocyte3000 flow cytometer.
For the molecule B1, the “Maximum MFI” value was 121000.
The same measure, in the same setting: the figure for B2 is 133000; for B3 it is 125000; for B4 it is 197000.
Consider B5, for which the “Maximum MFI” value was 73600.
B6: the “Maximum MFI” value amounted to 187000.
As for B7, the “Maximum MFI” value worked out at 189000.

In another assay the target is T2, CD3 on human T cells. Kind of assay: FACS on human T cells. The method, then:
as §1
As to B8, the binding result is recorded as “no binding (tested: 100 nM)”.

For a further assay, the target named is T1, human B7H4 on the cell surface. Kind of assay: FACS on SK-BR-3 cells. The method, then:
as §1
For B9, a half-maximal effect (EC50) was put at 71.2 nM and the “Maximum MFI” value was 214000.
For B8, a half-maximal effect (EC50) was put at 51.2 nM and the “Maximum MFI” value is 227000.
In the case of B1, a half-maximal effect (EC50) was put at 0.933 nM and the “Maximum MFI” value came out at 146000.
As for B2, the midpoint of the response, the EC50, lay at 0.676 nM and the “Maximum MFI” value amounted to 179000.
With B4, a half-maximal response (EC50) required 4.05 nM and the “Maximum MFI” value was 179000.
Consider B5, for which the EC50 was determined as 0.145 nM and the “Maximum MFI” value was 193000.
For the molecule B7, the midpoint of the response, the EC50, lay at 1.32 nM and the “Maximum MFI” value stood at 212000.
